Test results published in patent US20240368250A1 (Ablynx, published 2024).
Substitutions are numbered along the chain they refer to.

B1: TP006 (Fc fusion)
chain 1: DVQLVESGGGLVQPGGSLRLSCAASGLTFSTNPMYWYRQAPGKQRELVASISSRGITNYADSVKGRFTISRDNSKNTVYLQMNSLRPEDTAVYYCRLASLSSGTVYWGQGTLVTVSSDKTHTCPPCPAPEAAGGPSVFLFPPKPKDTLMISRTPEVTCVVVDVSQEDPEVQFNWYVDGVEVHNAKTKPREEQFNSTYRVVSVLTVLHQDWLNGKEYKCKVSNKGLPSSIEKTISKAKGQPREPQVYTLPPCQEEMTKNQVSLWCLVKGFYPSDIAVEWESNGQPENNYKTTPPVLDSDGSFFLYSKLTVDKSRWQEGNVFSCSVMHEALHNHYTQKSLSLSLGGGGGSGGGGSGGGGSGGGGSGGGGSGGGGSGGGGSEVQLVESGGGVVQPGGSLRLSCAASGFTFRSFGMSWVRQAPGKGPEWVSSISGSGSDTLYADSVKGRFTISRDNSKNTLYLQMNSLRPEDTALYYCTIGGSLSRSSQGTLVTVSS
chain 2: DKTHTCPPCPAPEAAGGPSVFLFPPKPKDTLMISRTPEVTCVVVDVSQEDPEVQFNWYVDGVEVHNAKTKPREEQFNSTYRVVSVLTVLHQDWLNGKEYKCKVSNKGLPSSIEKTISKAKGQPREPQVCTLPPSQEEMTKNQVSLSCAVKGFYPSDIAVEWESNGQPENNYKTTPPVLDSDGSFFLVSKLTVDKSRWQEGNVFSCSVMHEALHNHYTQKSLSLSLG
notes: IgG4 FALA Fc (knob-in-hole); irrelevant ISVD N-terminal and ALB23002 C-terminal (35GS) on chain 1; chain 2 is hinge-Fc only
B2: TP008 (Fc fusion)
chain 1: DVQLVESGGGLVQPGGSLRLSCAASGLTFSTNPMYWYRQAPGKQRELVASISSRGITNYADSVKGRFTISRDNSKNTVYLQMNSLRPEDTAVYYCRLASLSSGTVYWGQGTLVTVSSDKTHTCPPCPAPEAAGGPSVFLFPPKPKDTLMISRTPEVTCVVVDVSQEDPEVQFNWYVDGVEVHNAKTKPREEQFNSTYRVVSVLTVLHQDWLNGKEYKCKVSNKGLPSSIEKTISKAKGQPREPQVYTLPPCQEEMTKNQVSLWCLVKGFYPSDIAVEWESNGQPENNYKTTPPVLDSDGSFFLYSKLTVDKSRWQEGNVFSCSVMHEALHNHYTQKSLSLSLGGGGGSGGGGSGGGGSGGGGSGGGGSGGGGSGGGGSEVQLVESGGGLVQPGGSLRLSCAASGLTFSTNPMYWYRQAPGKQRELVASISSRGITNYADSVKGRFTISRDNSKNTVYLQMNSLRPEDTAVYYCRLASLSSGTVYWGQGTLVTVSS
chain 2: B1 chain 2
notes: IgG4 FALA Fc knob-in-hole
B3: TP009 (Fc fusion)
chain 1: DVQLVESGGGLVQPGGSLRLSCAASGLTFSTNPMYWYRQAPGKQRELVASISSRGITNYADSVKGRFTISRDNSKNTVYLQMNSLRPEDTAVYYCRLASLSSGTVYWGQGTLVTVSSDKTHTCPPCPAPEAAGGPSVFLFPPKPKDTLMISRTPEVTCVVVDVSQEDPEVQFNWYVDGVEVHNAKTKPREEQFNSTYRVVSVLTVLHQDWLNGKEYKCKVSNKGLPSSIEKTISKAKGQPREPQVYTLPPCQEEMTKNQVSLWCLVKGFYPSDIAVEWESNGQPENNYKTTPPVLDSDGSFFLYSKLTVDKSRWQEGNVFSCSVMHEALHNHYTQKSLSLSLG
chain 2: DVQLVESGGGVVQPGGSLRLSCAASGFTFRSFGMSWVRQAPGKGPEWVSSISGSGSDTLYADSVKGRFTISRDNSKNTLYLQMNSLRPEDTALYYCTIGGSLSRSSQGTLVTVSSDKTHTCPPCPAPEAAGGPSVFLFPPKPKDTLMISRTPEVTCVVVDVSQEDPEVQFNWYVDGVEVHNAKTKPREEQFNSTYRVVSVLTVLHQDWLNGKEYKCKVSNKGLPSSIEKTISKAKGQPREPQVCTLPPSQEEMTKNQVSLSCAVKGFYPSDIAVEWESNGQPENNYKTTPPVLDSDGSFFLVSKLTVDKSRWQEGNVFSCSVMHEALHNHYTQKSLSLSLG
notes: IgG4 FALA Fc (knob-in-hole); irrelevant ISVD N-terminal on chain 1, ALB23002 N-terminal on chain 2
B4: TP003 (Fc fusion)
chain 1: B3 chain 1
chain 2: B3 chain 1 with Y246C, C251S, W263S, L265A, Y304V
notes: IgG4 FALA Fc (knob-in-hole) with two N-terminal non-targeting ISVDs; also called control ISVD-Fc construct

Columns and labels:
[1] = molecular target: T1, Human serum albumin (HSA; Sigma-Aldrich Cat No. A8763) (human, UniProt P02768 25-609); assay: SPR Biacore 8K+, HSA on CM5 chip, pH 6.0, 1:1 fit
[2] = molecular target: T1, Human serum albumin (HSA; Sigma-Aldrich …); assay: SPR Biacore 8K+, HSA on CM5 chip, pH 7.4, 1:1 fit
[3] = molecular target: T2, Mouse serum albumin (MSA; Albumin Bioscience Cat No. 2601) (mouse, UniProt P07724 25-608); assay: SPR Biacore 8K+, MSA on CM5 chip, pH 6.0, 1:1 fit
[4] = molecular target: T2, Mouse serum albumin (MSA; Albumin …); assay: SPR Biacore 8K+, MSA on CM5 chip, pH 7.4, 1:1 fit
[5] = molecular target: T3, Human FcRn (biotinylated human FcRn) (human, UniProt P61769 21-119); assay: SPR Biacore 8K+, biotinylated hFcRn on SA chip (~600 RU), pH 6.0, bivalent analyte fit
T3 construct: Biotinylated human FcRn captured on a Series S Sensor Chip SA; also called human neonatal Fc receptor; hFcRn

[6] = molecular target: T3, Human FcRn (biotinylated human FcRn); assay: SPR Biacore 8K+, biotinylated hFcRn on SA chip (~1000-2000 RU), pH 6.0, no HSA, 1:1 fit
[7] = molecular target: T3, Human FcRn (biotinylated human FcRn); assay: SPR Biacore 8K+, biotinylated hFcRn on SA chip (~600 RU), pH 6.0, bivalent analyte fit (KD1)
[8] = molecular target: T3, Human FcRn (biotinylated human FcRn); assay: SPR Biacore 8K+, biotinylated hFcRn on SA chip (~600 RU), pH 6.0, bivalent analyte fit (ka1)
[9] = molecular target: T3, Human FcRn (biotinylated human FcRn); assay: SPR Biacore 8K+, biotinylated hFcRn on SA chip (~600 RU), pH 6.0, bivalent analyte fit (kd1)
[10] = molecular target: T3, Human FcRn (biotinylated human FcRn); assay: SPR Biacore 8K+, biotinylated hFcRn on SA chip (~1000-2000 RU), pH 6.0, no HSA, bivalent analyte fit
[11] = molecular target: T3, Human FcRn (biotinylated human FcRn); assay: SPR Biacore 8K+, biotinylated hFcRn on SA chip (~1000-2000 RU), pH 6.0, no HSA, bivalent analyte fit (KD1)
[12] = molecular target: T3, Human FcRn (biotinylated human FcRn); assay: SPR Biacore 8K+, biotinylated hFcRn on SA chip (~1000-2000 RU), pH 6.0, no HSA, bivalent analyte fit (ka1)
[13] = molecular target: T3, Human FcRn (biotinylated human FcRn); assay: SPR Biacore 8K+, biotinylated hFcRn on SA chip (~1000-2000 RU), pH 6.0, no HSA, bivalent analyte fit (kd1)
[14] = molecular target: T3, Human FcRn (biotinylated human FcRn); assay: SPR Biacore 8K+, biotinylated hFcRn on SA chip (~1000-2000 RU), pH 6.0, with 30 uM HSA, bivalent analyte fit (kd1); remark: no good fit possible
[15] = molecular target: T3, Human FcRn (biotinylated human FcRn); assay: SPR Biacore 8K+, biotinylated hFcRn on SA chip (~1000-2000 RU), pH 6.0, with 30 uM HSA, bivalent analyte fit
[16] = molecular target: T3, Human FcRn (biotinylated human FcRn); assay: SPR Biacore 8K+, biotinylated hFcRn on SA chip (~1000-2000 RU), pH 6.0, with 30 uM HSA, bivalent analyte fit (KD1)
[17] = molecular target: T3, Human FcRn (biotinylated human FcRn); assay: SPR Biacore 8K+, biotinylated hFcRn on SA chip (~1000-2000 RU), pH 6.0, with 30 uM HSA, bivalent analyte fit (ka1)
[18] = molecular target: T3, Human FcRn (biotinylated human FcRn); assay: SPR Biacore 8K+, biotinylated hFcRn on SA chip (~1000-2000 RU), pH 6.0, with 30 uM HSA, bivalent analyte fit (kd1)

Row | Binder | Kd [1] [nM] | koff [1] [s⁻¹] | ka2 [5] | kd2 [5] [s⁻¹] | Kd [6] [nM] | koff [6] [s⁻¹] | kon [6] [M⁻¹ s⁻¹] | Kd [7] [nM] | kon [8] [M⁻¹ s⁻¹] | koff [9] [s⁻¹] | ka2 [10] | kd2 [10] [s⁻¹] | Kd [11] [nM] | kon [12] [M⁻¹ s⁻¹] | koff [13] [s⁻¹] | ka2 [15] | kd2 [15] [s⁻¹] | Kd [16] [nM] | kon [17] [M⁻¹ s⁻¹] | koff [18] [s⁻¹] | also measured
1 | B1 | 32 | 0.0017 | 10.7 1/RUs | 71.9 | 18 | 0.083 | 4.5e+06 | 426 | 9440 | 0.00402 | 0.00013 1/RUs | 0.002 | 290 | 140000 | 0.042 | – | – | – | – | – | kon [1]: 54000 M⁻¹ s⁻¹; Kd [2]: 67 nM; koff [2]: 0.0017 s⁻¹; kon [2]: 26000 M⁻¹ s⁻¹; Kd [3]: 84 nM; koff [3]: 0.0026 s⁻¹; kon [3]: 31000 M⁻¹ s⁻¹; Kd [4]: 120 nM; koff [4]: 0.0028 s⁻¹; kon [4]: 23000 M⁻¹ s⁻¹; koff [14]: 0.0016 s⁻¹
2 | B2 | – | – | 28.7 1/RUs | 51.1 | 4.3 | 0.0086 | 2e+06 | 6.1 | 3.25e+06 | 0.0198 | 6.2e-05 1/RUs | 0.0021 | 75 | 270000 | 0.02 | 7.1 1/RUs | 120 | 190 | 260000 | 0.047 | –
3 | B3 | 2.7 | 0.00037 | 0.917 1/RUs | 10.2 | 3 | 0.0067 | 2.3e+06 | 15.1 | 22800 | 0.000344 | 0.0013 1/RUs | 0.018 | 150 | 240000 | 0.037 | 0.0074 1/RUs | 0.095 | 23 | 75000 | 0.0017 | kon [1]: 140000 M⁻¹ s⁻¹; Kd [2]: 6.7 nM; koff [2]: 0.0005 s⁻¹; kon [2]: 75000 M⁻¹ s⁻¹; Kd [3]: 13 nM; koff [3]: 0.002 s⁻¹; kon [3]: 160000 M⁻¹ s⁻¹; Kd [4]: 21 nM; koff [4]: 0.0026 s⁻¹; kon [4]: 130000 M⁻¹ s⁻¹
4 | B4 | – | – | 0.011 1/RUs | 0.0329 | 3.6 | 0.0017 | 460000 | 3.09 | 77000 | 0.000238 | 0.15 1/RUs | 2.4 | 39 | 250000 | 0.0098 | 100 1/RUs | 1900 | 77 | 470000 | 0.036 | –
